Test results from patent publication US20120065365A1, “Stable Radiopharmaceutical Compositions and Methods for Their Preparation” (BRACCO IMAGING S.P.A., priority 2003, published 2012).
Read-outs that look alike come from different tables or passages of the source.

Key:
[1] = type: physicochemical; conditions: 50 mCi/2 mL in Radiolysis Protecting Solution containing L-methionine, room temperature
Method: The injection volume was 20 μL.
A Radiolysis Protecting Solution was prepared to contain 10 mg/mL gentisic acid; 50 mg/mL ascorbic acid sodium salt; 2 mg/mL HSA; 2.98 mg/mL L-methionine, 0.9% (v:v) benzyl alcohol and 1 mg/mL of Na2EDTA.2H2O in 0.05 M, pH 5.3 citrate buffer. […] The mixture was incubated at 100° C. for 5 min, and then cooled to room temperature with a water bath. A 1-mL aliquot of the Radiolysis Protecting Solution was immediately added. The reaction vial was stored in an autosampler chamber and the stability was analyzed by Reversed Phase HPLC over time, using HPLC Methods 3 and 4. The results obtained for ^177Lu-B are shown in the chromatograms in FIG. 9.

[2] = Stability in Radiolysis Protecting Solution containing methionine (FIG. 4 and similar study); type: physicochemical; conditions: 104 mCi, diluted 1:1 with radiolysis protecting solution (2 mg/mL DL-methionine) added after complex formation, room temperature
Method: Formulations stabilized by such cocktails maintained excellent radiochemical purity (RCP) values (>95% RCP) for as long as 5 days at room temperature. This stabilizing cocktail is added immediately after formation of the radioactive complex, so would be the second vial of a two-vial kit.

[3] = type: physicochemical
Method: The reaction vial was crimp-sealed and heated at 100° C. for 10 min. […] The sample was stored in an autosampler in which the temperature is ˜6° C. […] than room temperature, and analyzed by RP-HPLC for up to 120 hours.

[4] = type: physicochemical; conditions: Radiolysis Protecting Solution containing L-selenomethionine, room temperature
Method: ^177Lu-A and ^177Lu-B were prepared at a 50 mCi level as described in EXAMPLE 4. Immediately after cooling the reaction mixtures to room temperature, 1 mL of a Radiolysis Protecting solution was added, containing 10 mg/mL gentisic acid; 50 mg/mL ascorbic acid sodium salt; 2 mg/mL HSA; 3.92 mg/mL L-selenomethionine, 0.9% (v:v) benzyl alcohol and 1 mg/mL of Na2EDTA.2H2O in 0.05 M, pH 5.3 citrate buffer. The reaction vials were stored in the autosampler chamber and the stability was analysed by RP-HPLC over time using HPLC Methods 3 [^177Lu-A] or 4 [^177Lu-B].

^177Lu-B: the ^177Lu complex of DOTA-Gly-Abz4-Gln-Trp-Ala-Val-Gly-His-Leu-Met-NH2
% RCP 0-d ([1]; 0 d): 99.8%
% RCP 1-d ([1]; 1 d): 99.3%
% RCP 2-d ([1]; 2 d): 99.6%
% RCP 5-d ([1]; 5 d): 99.8%
RCP for 5 days [2]: > 99%
RCP (%) ([3]; 110.5 mCi, prepared with L-selenomethionine 2.94 mg/mL, then 4 mL saline with sodium ascorbate 50 mg/mL and benzyl alcohol, 0 hours post-reconstitution): 99.5%
RCP (%) ([3]; L-selenomethionine 2.94 mg/mL plus ascorbate/benzyl alcohol saline, 120 (5 days) hours post-reconstitution): 99.8%
RCP (%) ([3]; L-selenomethionine 2.94 mg/mL plus ascorbate/benzyl alcohol saline, 2 hours post-reconstitution): 99.6%
RCP (%) ([3]; L-selenomethionine 2.94 mg/mL plus ascorbate/benzyl alcohol saline, 3 hours post-reconstitution): 99.5%
RCP (%) ([3]; L-selenomethionine 2.94 mg/mL plus ascorbate/benzyl alcohol saline, 6 hours post-reconstitution): 99.0%
RCP (%) ([3]; L-selenomethionine 2.94 mg/mL plus ascorbate/benzyl alcohol saline, 9 hours post-reconstitution): 99.4%
RCP (%) ([3]; L-selenomethionine 2.94 mg/mL plus ascorbate/benzyl alcohol saline, 12 hours post-reconstitution): 99.2%
RCP (%) ([3]; L-selenomethionine 2.94 mg/mL plus ascorbate/benzyl alcohol saline, 24 hours post-reconstitution): 99.4%
% RCP 0-d ([4]; 50 mCi level, 0 d): 95.8%
% RCP 1-d ([4]; 1 d): 95.7%
% RCP 2-d ([4]; 2 d): 96.2%
% RCP 3-d ([4]; 3 d): 96.7%
% RCP 5-d ([4]; 5 d): 98.4%
